Results: patent US10138493

How the values were obtained:
Test in all cases: cell_activity
synTF ZF 8-1 = settings: 1x reporter, HEK293FT; KRAB and HP1 fusions also repress
synTF ZF 6-4 = settings: 1x reporter, HEK293FT; KRAB and HP1 fusions also repress
synTF ZF 1-3 = settings: 1x reporter, HEK293FT; KRAB and HP1 fusions also repress (p284, p286)
synTF ZF 4-8 = settings: 1x reporter, HEK293FT; KRAB and HP1 fusions also repress
synTF ZF 9-2 = settings: 1x reporter, HEK293FT; KRAB and HP1 fusions also repress
synTF ZF 3-5 = settings: 1x reporter, HEK293FT; KRAB and HP1 fusions also repress
synTF ZF 7-3 = settings: 1x reporter, HEK293FT; KRAB and HP1 fusions also repress
synTF ZF 2-6 = settings: 1x reporter, HEK293FT; KRAB and HP1 fusions also repress
synTF ZF 5-7 = settings: 1x reporter, HEK293FT; KRAB and HP1 fusions also repress

AGACGCAGTATAGGTCGAAC (double strand) [Target 8]
activity (fold GFP activation) (synTF ZF 8-1): > 10

GGACGACGCGGTCTAAGAAG (double strand) [Target 6]
activity (fold GFP activation) (synTF ZF 6-4): > 10

CGTCGAAGTCGAAGTCGACC (double strand) [Target 1]
activity (fold GFP activation) (synTF ZF 1-3): > 10

GGACGACGCCGATGTAGAAG (double strand) [Target 4]
activity (fold GFP activation) (synTF ZF 4-8): > 10

AGACGCAGTATAGGACGACG (double strand) [Target 9]
activity (fold GFP activation) (synTF ZF 9-2): > 10

AGACGTCGAAGTAGCCGTAG (double strand) [Target 3]
activity (fold GFP activation) (synTF ZF 3-5): > 10

CGACGAGGTCGCATAAGTAG (double strand) [Target 7]
activity (fold GFP activation) (synTF ZF 7-3): > 10

GGACGACGTTACGGACGTAC (double strand) [Target 2]
activity (fold GFP activation) (synTF ZF 2-6): > 10

TGAAGCAGTCGACGCCGAAG (double strand) [Target 5]
activity (fold GFP activation) (synTF ZF 5-7): > 10
